Experiment: SEC; Superdex 200 10/300 GL, phosphate-buffered saline, 0.5 mL/min, ambient temperature, UV 280 nm; the SEC 'monomer' peak is the native covalent dimer

dulaglutide, original reference drug (Trulicity), sequence (chain): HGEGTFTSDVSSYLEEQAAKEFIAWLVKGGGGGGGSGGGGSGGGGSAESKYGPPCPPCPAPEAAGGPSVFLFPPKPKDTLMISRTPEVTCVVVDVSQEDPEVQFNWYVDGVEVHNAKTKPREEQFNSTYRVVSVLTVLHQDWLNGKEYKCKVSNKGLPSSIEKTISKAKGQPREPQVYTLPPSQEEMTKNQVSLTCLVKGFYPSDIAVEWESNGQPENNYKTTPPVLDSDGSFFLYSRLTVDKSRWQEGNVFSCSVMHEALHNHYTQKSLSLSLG

In the case of “dulaglutide, original reference drug (Trulicity)”, the “percent in the SEC 'monomer' peak (the native covalent dimer)” value is reported as 97.5% monomeric form in the Trulicity sample.

— paper PMC12736101
